Patent US20150344570A1 (published 2015)

What was measured:
[1] = biological target: T1, FcγRIIa H (FcγRIIa, allotype with His at position 131), extracellular domain with C-terminal His tag (human, UniProt P12318 34-217); experiment: SPR (Biacore); He/Con_2aH divided by He/Con_2b (FcγRIIb)
T1 construct: extracellular domain; also called FcgRIIa H; 2aH; not shown: His tag at the C terminus
T1 sequence (looked up): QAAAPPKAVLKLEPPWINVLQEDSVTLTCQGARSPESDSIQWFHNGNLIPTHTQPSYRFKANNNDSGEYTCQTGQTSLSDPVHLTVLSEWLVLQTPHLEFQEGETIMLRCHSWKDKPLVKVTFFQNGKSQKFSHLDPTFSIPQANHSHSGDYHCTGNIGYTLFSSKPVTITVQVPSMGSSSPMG

[2] = biological target: T1, FcγRIIa H (FcγRIIa, allotype with His …); experiment: SPR (Biacore), relative binding vs GpH7-A5/GpH7-B3/GpL16-k0
[3] = biological target: T2, FcγRIIb, extracellular domain with C-terminal His tag (human, UniProt P31994 43-217); experiment: as above
T2 construct: extracellular domain; also called FcgRIIb; 2b; not shown: His tag at the C terminus
T2 sequence (looked up): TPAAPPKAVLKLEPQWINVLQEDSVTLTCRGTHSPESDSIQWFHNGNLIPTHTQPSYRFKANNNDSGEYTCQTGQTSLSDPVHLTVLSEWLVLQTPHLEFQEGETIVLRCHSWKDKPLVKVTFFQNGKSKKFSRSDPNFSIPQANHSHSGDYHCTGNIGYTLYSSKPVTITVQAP

B1: GpH7-A5/GpH7-B3 variant N325_01G/GpL16-k0 (antibody, human IgG1, kappa)
heavy 1: not shown
heavy 2: not shown
light: DIVMTQSPLSLPVTPGEPASISCQASESLVHSNRNTYLHWYLQKPGQSPQLLIYKVSNRFSGVPDRFSGSGSGTDFTLKISRVEAEDVGVYYCSQNTHVPPTFGQGTKVEIERTVAAPSVFIFPPSDEQLKSGTASVVCLLNNFYPREAKVQWKVDNALQSGNSQESVTEQDSKDSTYSLSSTLTLSKADYEKHKVYACEVTHQGLSSPVTKSFNRGEC
notes: Heterodimerized anti-glypican-3 IgG1; mutation in one H chain only; also called He Ab
Q: B1 was tested. Which “He_2aH/2b (IIaH/IIb)” value [1] did it give?
A: 0.56 ratio

Q: What about the He/Con_2aH [2] of the same binder?
A: 56.8 % of HeCon Ab (=100)

Q: What about the He/Con_2b [3] of the same binder?
A: 101 % of HeCon Ab (=100)

B2: GpH7-A5/GpH7-B3 variant K326_04F/GpL16-k0 (antibody, human IgG1, kappa)
heavy 1: not shown
heavy 2: not shown
light: DIVMTQSPLSLPVTPGEPASISCQASESLVHSNRNTYLHWYLQKPGQSPQLLIYKVSNRFSGVPDRFSGSGSGTDFTLKISRVEAEDVGVYYCSQNTHVPPTFGQGTKVEIERTVAAPSVFIFPPSDEQLKSGTASVVCLLNNFYPREAKVQWKVDNALQSGNSQESVTEQDSKDSTYSLSSTLTLSKADYEKHKVYACEVTHQGLSSPVTKSFNRGEC
notes: as for B1
Q: How did the “He_2aH/2b (IIaH/IIb)” value [1] turn out when B2 was run?
A: 0.63 ratio

Q: And the He/Con_2aH [2]?
A: 97 % of HeCon Ab (=100)

Q: And the He/Con_2b [3]?
A: 155 % of HeCon Ab (=100)

B3: GpH7-A5/GpH7-B3 variant K326_05P/GpL16-k0 (antibody, human IgG1, kappa)
heavy 1: not shown
heavy 2: not shown
light: DIVMTQSPLSLPVTPGEPASISCQASESLVHSNRNTYLHWYLQKPGQSPQLLIYKVSNRFSGVPDRFSGSGSGTDFTLKISRVEAEDVGVYYCSQNTHVPPTFGQGTKVEIERTVAAPSVFIFPPSDEQLKSGTASVVCLLNNFYPREAKVQWKVDNALQSGNSQESVTEQDSKDSTYSLSSTLTLSKADYEKHKVYACEVTHQGLSSPVTKSFNRGEC
notes: as for B1
Q: How did the “He_2aH/2b (IIaH/IIb)” value [1] turn out when B3 was run?
A: 0.79 ratio

Q: What about the He/Con_2aH [2] of the same binder?
A: 98.8 % of HeCon Ab (=100)

Q: What about the He/Con_2b [3] of the same binder?
A: 126 % of HeCon Ab (=100)

B4: GpH7-A5/GpH7-B3 variant K326_06M/GpL16-k0 (antibody, human IgG1, kappa)
heavy 1: not shown
heavy 2: not shown
light: DIVMTQSPLSLPVTPGEPASISCQASESLVHSNRNTYLHWYLQKPGQSPQLLIYKVSNRFSGVPDRFSGSGSGTDFTLKISRVEAEDVGVYYCSQNTHVPPTFGQGTKVEIERTVAAPSVFIFPPSDEQLKSGTASVVCLLNNFYPREAKVQWKVDNALQSGNSQESVTEQDSKDSTYSLSSTLTLSKADYEKHKVYACEVTHQGLSSPVTKSFNRGEC
notes: as for B1
Q: With B4 as the binder, how does the “He_2aH/2b (IIaH/IIb)” value [1] read?
A: 0.63 ratio

Q: And the He/Con_2aH [2]?
A: 103 % of HeCon Ab (=100)

Q: And the He/Con_2b [3]?
A: 165 % of HeCon Ab (=100)

B5: GpH7-A5/GpH7-B3 variant K326_07I/GpL16-k0 (antibody, human IgG1, kappa)
heavy 1: not shown
heavy 2: not shown
light: DIVMTQSPLSLPVTPGEPASISCQASESLVHSNRNTYLHWYLQKPGQSPQLLIYKVSNRFSGVPDRFSGSGSGTDFTLKISRVEAEDVGVYYCSQNTHVPPTFGQGTKVEIERTVAAPSVFIFPPSDEQLKSGTASVVCLLNNFYPREAKVQWKVDNALQSGNSQESVTEQDSKDSTYSLSSTLTLSKADYEKHKVYACEVTHQGLSSPVTKSFNRGEC
notes: as for B1
Q: What does the source list for B5?
A: He_2aH/2b (IIaH/IIb) [1]: 0.5 ratio; He/Con_2aH [2]: 100 % of HeCon Ab (=100); He/Con_2b [3]: 199 % of HeCon Ab (=100)

B6: GpH7-A5/GpH7-B3 variant K326_08L/GpL16-k0 (antibody, human IgG1, kappa)
heavy 1: not shown
heavy 2: not shown
light: DIVMTQSPLSLPVTPGEPASISCQASESLVHSNRNTYLHWYLQKPGQSPQLLIYKVSNRFSGVPDRFSGSGSGTDFTLKISRVEAEDVGVYYCSQNTHVPPTFGQGTKVEIERTVAAPSVFIFPPSDEQLKSGTASVVCLLNNFYPREAKVQWKVDNALQSGNSQESVTEQDSKDSTYSLSSTLTLSKADYEKHKVYACEVTHQGLSSPVTKSFNRGEC
notes: as for B1
Q: For B6, which “He_2aH/2b (IIaH/IIb)” value [1] is on record?
A: 0.52 ratio

Q: And the He/Con_2aH [2]?
A: 92.7 % of HeCon Ab (=100)

Q: What about the He/Con_2b [3] of the same binder?
A: 177 % of HeCon Ab (=100)

B7: GpH7-A5/GpH7-B3 variant K326_09D/GpL16-k0 (antibody, human IgG1, kappa)
heavy 1: not shown
heavy 2: not shown
light: DIVMTQSPLSLPVTPGEPASISCQASESLVHSNRNTYLHWYLQKPGQSPQLLIYKVSNRFSGVPDRFSGSGSGTDFTLKISRVEAEDVGVYYCSQNTHVPPTFGQGTKVEIERTVAAPSVFIFPPSDEQLKSGTASVVCLLNNFYPREAKVQWKVDNALQSGNSQESVTEQDSKDSTYSLSSTLTLSKADYEKHKVYACEVTHQGLSSPVTKSFNRGEC
notes: as for B1
Q: Which “He_2aH/2b (IIaH/IIb)” value [1] does the source give for B7 here?
A: 0.57 ratio

Q: What about the He/Con_2aH [2] of the same binder?
A: 110 % of HeCon Ab (=100)

Q: What about the He/Con_2b [3] of the same binder?
A: 193 % of HeCon Ab (=100)

B8: GpH7-A5/GpH7-B3 variant K326_10E/GpL16-k0 (antibody, human IgG1, kappa)
heavy 1: not shown
heavy 2: not shown
light: DIVMTQSPLSLPVTPGEPASISCQASESLVHSNRNTYLHWYLQKPGQSPQLLIYKVSNRFSGVPDRFSGSGSGTDFTLKISRVEAEDVGVYYCSQNTHVPPTFGQGTKVEIERTVAAPSVFIFPPSDEQLKSGTASVVCLLNNFYPREAKVQWKVDNALQSGNSQESVTEQDSKDSTYSLSSTLTLSKADYEKHKVYACEVTHQGLSSPVTKSFNRGEC
notes: as for B1
Q: With B8 as the binder, how does the “He_2aH/2b (IIaH/IIb)” value [1] read?
A: 0.51 ratio

Q: And the He/Con_2aH [2]?
A: 102 % of HeCon Ab (=100)

Q: What about the He/Con_2b [3] of the same binder?
A: 200 % of HeCon Ab (=100)

B9: GpH7-A5/GpH7-B3 variant K326_14T/GpL16-k0 (antibody, human IgG1, kappa)
heavy 1: not shown
heavy 2: not shown
light: DIVMTQSPLSLPVTPGEPASISCQASESLVHSNRNTYLHWYLQKPGQSPQLLIYKVSNRFSGVPDRFSGSGSGTDFTLKISRVEAEDVGVYYCSQNTHVPPTFGQGTKVEIERTVAAPSVFIFPPSDEQLKSGTASVVCLLNNFYPREAKVQWKVDNALQSGNSQESVTEQDSKDSTYSLSSTLTLSKADYEKHKVYACEVTHQGLSSPVTKSFNRGEC
notes: as for B1
Q: Which results are given for B9?
A: He_2aH/2b (IIaH/IIb) [1]: 0.77 ratio; He/Con_2aH [2]: 114 % of HeCon Ab (=100); He/Con_2b [3]: 150 % of HeCon Ab (=100)
